Measured values from publication PMC4066659.

Target: assembled microtubules
Test: co-sedimentation

Substance	percent of wildtype Eg5 recovered in the microtubule pellet [%]
His6-Eg5[Ser1033Asp] (baculovirus) (from UniProt P52732 1-1056) (natural protein)	42
His6-Eg5[Thr926Ala] (baculovirus) (from UniProt P52732 1-1056) (natural protein)	28
